Source: patent US10556936B2, “Immunogenic proteins and fragments thereof from allergenic mites” (ALK-ABELLÓ A/S, priority 2016, dated 2020)

Experiments:
Format in all cases: cell-based, human
[1] = system: basophils in whole blood from HDM allergic donors; assay: Basophil Activation Test (BAT); details: blood from HDM allergic individuals (n=14)
Method: Basophil Activation Test (BAT) was used as a predictive in vitro assay for indication of safety/immediate hypersensitivity reactions. The BAT assay is a widely used diagnostic test that is also used for evaluation of allergenicity of allergen derived components. In short: whole blood from HDM allergic donors was stimulated for 1 h with the proteins, and the increased expression of activation markers on the surface of basophils were measured by flow cytometry. The BAT test was carried out using different concentrations of the proteins and the allergens Der p 2 and Der p 1 was used as controls and tested in the same concentration rates.
(§1) This example relates to the further testing of immunogenicity of the proteins identified in Example 1. Their ability to react with IgE antibodies in HDM allergic individuals, to stimulate in vitro T cell proliferation of HDM allergic individuals and non-allergics, and to stimulate ex vivo cytokine production of HDM allergic individuals and non-allergics. The following tests were used: • Basophil Activation Test (BAT) was used as a predictive in vitro assay for indication of safety/immediate hypersensitivity reactions. BAT test was carried out using blood from HDM allergic individuals (n=14), and by use of different concentrations of test proteins or the major house dust mite allergens (Der p 1, Der f 1, Der p 2 or Der f 2, e.g. a concentration of 1, 10, 100 or 1000 ng/ml. • In vitro T cell reactivity determined in T cell lines obtained from HDM allergic individuals (n=30) and non-allergics (n=8): Determined by establishment of HDM specific T-cell lines according to standard methods. In short, PMBCs from HDM allergic donors were cultured for 3 weeks in the presence of house dust mite allergen extract. The responses to proteins at a concentration of 0.5 ug/ml or 2 ug/ml of the test protein or the major house dust mite allergens (Der p 1, Der f 1, Der p 2 or Der f 2) were assessed by proliferation in a standard 72 h T cell proliferation assay, as described in Henmar H et al., Clin Exp Immunol 2008; 153(3):316-23. […]. • Ex vivo stimulation of PBMC cells obtained from mite allergic patients (n=16) and non-allergics (n=6): Determined by measuring the production of the cytokines; IFN-gamma, IL-9, IL-10, IL-17 and IL-31 following stimulation with test protein in concentration up to 10 ug/ml. Freshly isolated PBMC 5×10^6/ml were cultured with a test protein for 5 days and cell supernatant were harvested and stored at −80° C. Cytokines of the supernatants were measured using ProcartaPlex Multiplex Immunoassays with MAGPIX Multiplex Reader according manufactory protocol.

[2] = system: T cell lines obtained from HDM allergic individuals and non-allergics; assay: In vitro T cell proliferation test in T cell lines (Example 3); details: 0.5 or 2 ug/ml, 72 h; for % responders of in-vitro T cell proliferation test, Allergic: T cell lines from HDM allergic individuals (n=30); for % responders of in-vitro T cell proliferation test, Non-allergics: T cell lines from non-allergics (n=8)
Source text: as §1

[3] = system: PBMC cells obtained from mite allergic patients and non-allergics; assay: Ex vivo stimulation of PBMC: cytokine production (IFN-gamma, IL-9, IL-10, IL-17, IL-31)
Source text: as §1

| Molecule | # of individuals of 14 with positive BAT test ([1]; 1 ng/ml) | # of individuals of 14 with positive BAT test ([1]; 10 ng/ml) | # of individuals of 14 with positive BAT test ([1]; 100 ng/ml) | # of individuals of 14 with positive BAT test ([1]; 1000 ng/ml) | % responders of in-vitro T cell proliferation test, Allergic [2] | % responders of in-vitro T cell proliferation test, Non-allergics [2] | % HDM allergic individuals with cytokine production in ex-vivo T cell assay IL-5 [3] | % HDM allergic individuals with cytokine production in ex-vivo T cell assay IL-9 [3] | % HDM allergic individuals with cytokine production in ex-vivo T cell assay IL-10 [3] | % HDM allergic individuals with cytokine production in ex-vivo T cell assay IL-13 [3] | % HDM allergic individuals with cytokine production in ex-vivo T cell assay IL-17 [3] | % HDM allergic individuals with cytokine production in ex-vivo T cell assay IL-31 [3] | % HDM allergic individuals with cytokine production in ex-vivo T cell assay INF-g [3] | % non-allergic individuals with cytokine production in ex-vivo T cell assay IL-5 [3] | % non-allergic individuals with cytokine production in ex-vivo T cell assay IL-9 [3] | % non-allergic individuals with cytokine production in ex-vivo T cell assay IL-10 [3] | % non-allergic individuals with cytokine production in ex-vivo T cell assay IL-13 [3] | % non-allergic individuals with cytokine production in ex-vivo T cell assay IL-17 [3] | % non-allergic individuals with cytokine production in ex-vivo T cell assay IL-31 [3] | % non-allergic individuals with cytokine production in ex-vivo T cell assay INF-g [3] |
| --- | --- | --- | --- | --- | --- | --- | --- | --- | --- | --- | --- | --- | --- | --- | --- | --- | --- | --- | --- | --- |
| A012: house dust mite protein; SEQ ID NO: 22 (Der p), 38 (Der f), 310 (Blo t) (protein) QSRDRNDKPYRIVCYWGTWAFYRPASGKFQAENVNPNLCTHIMYGFAKLQNNKIALYDPDLDDGDEDWNSGLQWGHGMIRRMVNLRTYNPHLTTMISLGGWNEGSDKYSIMVRDPASRKIFIQSVLHLLAEFDLDGLDFDWEYPAMQASGDSDRKPGRAEDKEDFVTLLRELHEAFQPHGYVLSSAVSAGKPTIDRAYNIPEVSKYLDFINLMSYDYHGGWESHTGHNAPLNSYKNANELDKEFTVTYSVEYWLNHGVDPKKLVLGIPLYGRTFTLAGSEHGIGAPTIGKGGESGTITRTIGMLGYNEICTMIKQGWQLYRDEIERIPYAVHANQWIGYDDRESVNEKLNLLMAKHLGGAMVWSIDTDDFVGNCVGVKYPLLRSISKKLNNVDGPDPDIKRYHYHTSTAKPHTDGTTSTHHDHKTTTTKHHKTTQPHHKTTQPHHTQTITTTTERPHGKFQCHQAGFFADPENPRKFHQCVDFGGHLKDYEFMCGEGTHYDEKLHICVR | 0 | 0 | 0 | 0 | 39% | 13% | 69% | 25% | 19% | 44% | 19% | 0% | 0% | 0% | 0% | 67% | 0% | 33% | 0% | 17% |
| A013: house dust mite protein; SEQ ID NO: 36 (Der f), 37 (Der p), 311 (Blo t) (protein) DTPANCTYEDIKGLWLFEETEPIKDRWEKCPEHQQQREKYSKKIFIRLDFPNVAVDKFGNIGEWTMIYNQGFEVKINYRKYFAFSAYERKSENNVLSYCHKTQPGWSHDVLGNNWACYVGHKVNNWNDDDVSKTTTVGAEKFPVKQHSERELYLQNINVEHILSQKHIDHLNSQQKSWKAIVYPDLQSKSIEHLIQMAGGRKSRIINRPKPLRATEQQKQLARSLPESFDWRNLNGIDYVSPVRDQGKCGSCYTFASMAMLESRIRIQTNNTFKPIFSTQEVVDCSEYSQGCDGGFSYLIAGKYAQDFGVIDESCYPYKGVTGKCQNQQNFNQTNEKCKQRTYTIDYKYVGGYFGACNEEAMQIELVQNGPIAVGFEVYGDFFGYSEGIYSHQPSNESNDQHQQIKAEFNPFEMTNHAVLIVGYGKDKKTGEKYWIVKNSWGKQWGMDGYFWMRRGTDECAIESLAMAATPIPN | 0 | 0 | 0 | 0 | 18% | 13% | 50% | 25% | 38% | 38% | 6% | 0% | 0% | 0% | 0% | 0% | 0% | 0% | 0% | 0% |
| A014: house dust mite protein; SEQ ID NO: 32 (Der f), 33 (Der p) (protein) IEQVHIALGSNETEIIVTWTEPHKHDDKTSDAVVYYGQAKSSFDQKVKAISEYFKDDKTKYTTYRALLTGLLPGTEYHYRIQMDDLESSIFEFKTLKTGEENWLPRFAIYGDLGYVNEQSLPYLKKDVEQNLFDVIFHIGDFAYDLNDEHGKVGHHFMRSIEPVASKVAYMTCPGNHERHDNFSHYDSRFSMIGDRSQPIHSDKLNKRLNNHFHSMTIGPATIILFSTEYYYYTKYGWQQIEHQYRWLEQELKRANENRQKHPWIIVMGHRPLYCLKMGDDSCDHQTMERKEIRQGIRMHDEGERQYGLEDLFFKYGVDIQFYGHEHFYARLFPIYKYKMYNGTKSKNPYDHPGAPIHITTGSAGNKELHPEFNHLNDWVAEHFYDYGYTRLMFEDKYRIRLQQISDDQHGKVLDEIEIVKSSPQPHWMNVEHH | 0 | 0 | 0 | 0 | 43% | 0% | 6% | 0% | 25% | 6% | 31% | 0% | 13% | 0% | 0% | 33% | 0% | 33% | 0% | 33% |
| A016: house dust mite protein; SEQ ID NO: 28 (Der f), 29 (Der p) (protein) MVKIGINGFGRIGRLVLRAAIKKGVEVAAINDPFLDVKYMVYMFKFDSTHGRYQGEVKEEGGLLVVDGQKIQVFQERNPAEIPWGKVGADYVVESTGVFTTIEKAKAHLAGGAKKVIISAPSADAPMYVMGVNHDKYDPKQQIISNASCTTNCLAPLAKVINDKFGIENGLMTTVHAITATQKTVDGPSGKLWRDGRGAGQNIIPASTGAAKAVGKVIPELNGKLTGMALRVPVPDVSVVDLTVTLKNPASYDEIKAAVKAAAESDHWKGILEYTDEEVVSSDFISDTHSSIFDAKAGIALTPTFVKLIAWYDNEFGYSNRVVDLIKYVASK | 0 | 0 | 0 | 0 | 7% | 0% | 6% | 0% | 25% | 13% | 13% | 0% | 6% | 0% | 0% | 0% | 0% | 17% | 0% | 0% |
